For assay [1], the target named is T1 with SpyCatcher, flanked by six residue glycine-serine linkers, inserted on the lumenal side (Haliangium ochraceum | not stated). The assay is described as follows: fluorescence intensity of purified shells; number of cfp cargo proteins per shell calculated from fluorescence intensity values of shells loaded in vivo and purified by CAP and anion exchange.
Assay [2] deals with T1 with SpyTag, flanked by six residue glycine-serine linkers, inserted on the lumenal side (Haliangium ochraceum | not stated). The assay is described as above.

As to “SpyTag-mTurquoise2-6xHis (SpyTagged cyan fluorescent protein cargo)”, the cfp cargo copies per shell (copies per shell) in assay [1] was 73.
As to “SpyCatcher-mTurquoise2-6xHis (SpyCatcher-fused cyan fluorescent protein cargo)”, the cfp cargo copies per shell (copies per shell) in assay [2] was 58.

The values are drawn from article PMC6056538.
